Measurements from US20210269549A1, “ANTI-SAS1B ANTIBODIES, ASSOCIATED METHODS OF USE, AND COMPOSITIONS AND METHODS FOR DETECTING AND TREATING CANCER” (UNIVERSITY OF VIRGINIA PATENT FOUNDATION, priority 2015, published 2021).
Each block holds one molecule with its values, some of them ahead of it.

Experiments:
[1] = tested on: human uterine cancer cells (MMMT539); test: Antibody drug conjugate cytotoxicity (ADC) assay, MMMT539; format: cell-based; conditions: FIG. 3A-B
Procedure: The cytotoxic effect of anti-human SAS1B mAbs SB2 and SB5 on human uterine cancer cells (MMMT539) was examined by antibody drug conjugate cytotoxicity (ADC) assay. Human uterine cancer cells MMMT539 were seeded in triplicate on 96 well plate overnight and then treated with SB2 or SB5 and anti-mouse Fab-cleavable-Duocarmycin complex for ˜90 h. The presence of viable live cells per well was measured by total cellular ATP content in relative luminescence unit (RLU). Viability of control live cells (100%) was determined from average of 9 wells in terms of total cellular ATP (in RLU) containing the constant 15 nM Fab-CL-DMDM for each set of antibody/reagent. […] Staurosporine, a general protein kinase inhibitor, was used to induce apoptosis in 1% DMSO as a positive control for the assay.

human SAS1B = target: T1, human SAS1B (Homo sapiens, UniProt Q6HA08); test: Western blot of human SAS1B probed with anti-human SAS1B murine mAbs; format: binding; conditions: for Specifically binds human SAS1B (and not mouse SAS1B): Table 1
T1 construct: made in house; host or cells: E. coli
T1 sequence (Q6HA08 24-431): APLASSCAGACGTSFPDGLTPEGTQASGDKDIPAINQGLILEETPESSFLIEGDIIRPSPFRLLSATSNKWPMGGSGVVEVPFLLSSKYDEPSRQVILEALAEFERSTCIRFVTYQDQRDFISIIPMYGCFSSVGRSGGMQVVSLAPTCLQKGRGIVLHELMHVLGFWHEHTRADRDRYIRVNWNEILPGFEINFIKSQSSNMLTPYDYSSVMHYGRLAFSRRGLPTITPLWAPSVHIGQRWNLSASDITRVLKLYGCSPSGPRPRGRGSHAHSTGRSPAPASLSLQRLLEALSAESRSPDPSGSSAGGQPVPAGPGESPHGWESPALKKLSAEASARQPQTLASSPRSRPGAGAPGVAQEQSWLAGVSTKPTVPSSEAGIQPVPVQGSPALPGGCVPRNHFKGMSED
Excerpt: A western blot of human SAS1B and mouse SAS1B was probed with anti-human SAS1B murine monoclonal antibodies SB1, SB2, SB3, SB4, SB5, SB6, and SB7.

[2] = target: T2, full-length SAS1B splice variant A polypeptide (Homo sapiens, UniProt Q6HA08); test: Western blot with mammalian cell-expressed recombinant SAS1B, full length; format: binding
T2 construct: made in house
T2 sequence (Q6HA08 24-431): T1 sequence (Q6HA08 24-431)
Procedure: (§1) SAS1B monoclonal antibodies were analyzed with mammalian cell-expressed recombinant SAS1B by western blotting.

[3] = target: T3, SAS1B extracellular domain (aa 164-431) polypeptide (Homo sapiens, UniProt Q6HA08); test: Western blot with mammalian cell-expressed recombinant SAS1B, extracellular domain; format: binding
T3 construct: SAS1B extracellular domain (aa 164-431) polypeptide; made in house
T3 sequence (Q6HA08 164-431): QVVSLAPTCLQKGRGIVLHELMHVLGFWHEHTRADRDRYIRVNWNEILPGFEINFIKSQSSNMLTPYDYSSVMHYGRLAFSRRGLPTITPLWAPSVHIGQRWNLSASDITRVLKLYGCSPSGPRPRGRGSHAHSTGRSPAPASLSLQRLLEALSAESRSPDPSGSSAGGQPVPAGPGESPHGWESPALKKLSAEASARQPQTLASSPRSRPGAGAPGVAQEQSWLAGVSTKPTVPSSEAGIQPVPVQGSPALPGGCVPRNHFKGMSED
Procedure: as §1

[4] = target: T4, human SAS1B protein with a C-terminal V5 tag expressed by HEK293T cells (Homo sapiens, UniProt Q6HA08); test: Double immunofluorescence on fixed and permeabilized HEK293T cells transfected with SAS1B SV-A with V5 tag; format: cell-based; conditions: for IF signal / colocalization with V5-tag epitope signal: SV-A transfected HEK293T, PFA fixed, methanol permeabilized, mAbs at 10 ug/ml
T4 construct: expressed in transfected cells; host or cells: HEK293T
T4 sequence (Q6HA08 24-431): T1 sequence (Q6HA08 24-431)
Procedure: Experiments were conducted to determine the specificity of anti-human SAS1B monoclonal antibodies SB1, SB2, SB3, SB4, SB5, SB6 and SB7 against the human SAS1B protein with a C-terminal V5 tag expressed by HEK293T cells by double immuno-fluorescence from two different SAS1B epitopes. HEK293T cells were seeded at ˜100,000 per well of a 24 well plate containing a lysine-coated 12 mm coverslip. 24 hours later, the cells were transfected with 1 ug of SV-A plasmid with 2 ul of TURBOFECT® transfection reagent followed by no change of media. 48 h later the cells were PFA (paraformaldehyde) fixed and methanol permeabilized for an IF study as follows.
The cells were removed from cell culture media and fixed in 4% PFA in PBS, 300 ul for 15 min. The cells were washed in 1 ml PBS in wells for 3 times and permeabilized in methanol (100%) for 15 min in 0.5 ml at RT. The cells were washed in PBS 1 ml for 3 times and blocked in complete culture media (DMEM) with 5% normal goat serum (NGS) for 30 min (i.e. BB, blocking buffer). The first antibody in BB was added for 1 h at 10 ug/ml for mouse monoclonal antibodies (SB1, SB2, SB3, SB4, SB5, SB6, SB7) and 5 ug/ml for anti-V5 DYLIGHT® 488 (green) rabbit (a rabbit polyclonal antibody to V5 tag). The cells were washed in PBS 3 times. The second antibody in BB (Goat anti-mouse Alexa Flour 594, red) was added for 1 h at 5 ug/ml (1:200 dilution). The cells were washed in PBS 3 times. The cells were mounted in slow fade DAPI 3 ul and stored at 4° C. before confocal imaging.

Molecule: CN[C@@H]1C[C@H]2O[C@@](C)([C@@H]1OC)n1c3ccccc3c3c4c(c5c6ccccc6n2c5c31)C(=O)NC4 [Staurosporine, reference compound]
Cell killing [1]: killed the cancer cells in a dose dependent manner

Reactivity on western blot of human SAS1B and mouse SAS1B (human SAS1B): specific to the human SAS1B only
Specificity in western blot for human SAS1B antigen in an E. coli protein background (human SAS1B): demonstrated specificity
Specifically binds human SAS1B (and not mouse SAS1B) (human SAS1B): Yes
Reaction with SAS1B extracellular domain (aa 164-431) polypeptide [3]: none of the them reacted
Signal on mock transfected HEK293T cells [4]: no V5 signal or SAS1B signal
B1: SB6: mouse anti-human SAS1B monoclonal antibody, IgG2b; VH SEQ ID NO:16, VL SEQ ID NO:18 (antibody, listed as Mus musculus, V domains shown)
VH: EVQLQQSGPELVKPGSSVKISCKPSGYTFTDYNMVWMKQSHGKSLEWIGAINPNNGGTTYNQKFKGKATLTVDKSSSTAYMELRSLTSEDSAVYYCAPNWDWFAYWGQGTLVTVSA
VL: DVLMTQIPLSLPVSLGDQASISCRSSQSILHSNGNTYLEWYLQKPGQSPKLLIYKVSNRFSGVPDRFSGSGSGTDFTLKISRVEAEDLGVYYCFQGSHVPFTFGSGTKLEIK
Reaction with full-length SAS1B splice variant A polypeptide [2]: reacted with the full-length SAS1B splice variant A polypeptide
IF signal / colocalization with V5-tag epitope signal [4]: colocalize (merge) with V5-tag epitope signal

Reactivity on western blot of human SAS1B and mouse SAS1B (human SAS1B): specific to the human SAS1B only
Specificity in western blot for human SAS1B antigen in an E. coli protein background (human SAS1B): demonstrated specificity
Specifically binds human SAS1B (and not mouse SAS1B) (human SAS1B): Yes
Reaction with SAS1B extracellular domain (aa 164-431) polypeptide [3]: none of the them reacted
Signal on mock transfected HEK293T cells [4]: no V5 signal or SAS1B signal
B2: SB7: mouse anti-human SAS1B monoclonal antibody, IgG2b; VH SEQ ID NO:16, VL SEQ ID NO:18 (antibody, listed as Mus musculus, V domains shown)
VH: B1 VH
VL: B1 VL
Reaction with full-length SAS1B splice variant A polypeptide [2]: reacted with the full-length SAS1B splice variant A polypeptide
IF signal / colocalization with V5-tag epitope signal [4]: colocalize (merge) with V5-tag epitope signal
